Experiments:
Assay in all cases: activation reporter or marker
[1] = target: T1, CDADC1p.R148Q peptide on HLA-A*24:02 (human)
T1 peptide: AGVNQISYW

[2] = target: T2, FCGRTp.A241T peptide on HLA-C*06:02 (human)
T2 peptide: LRFLRNGLT

[3] = target: T3, BRPF1p.L634F peptide on HLA-A*24:02 (human)
T3 peptide: EMQLTPFFI

[4] = target: T4, PAPSS1p.Q144H peptide on HLA-C*07:02 (human)
T4 peptide: ARHIHEGASL

[5] = target: T5, USP34p.S2706F peptide on HLA-C*07:02 (human)
T5 peptide: FRSTRFLHI

[6] = target: T6, MED12Lp.T462K peptide on HLA-C*07:02 (human)
T6 peptide: SRVLHKLEV

[7] = target: T7, SDK1p.S1290L peptide on HLA-A*02:01 (human)
T7 peptide: SLTQILLTWT

[8] = target: T8, RASA3p.A654V peptide on HLA-A*02:01 (human)
T8 peptide: FQVIQPERV

[9] = target: T9, MAN2A2p.R877W peptide on HLA-C*04:01 (human)
T9 peptide: IWDYVNKELA

[10] = target: T10, WDFY3p.L512H peptide on HLA-A*11:01 (human)
T10 peptide: VMVNHLHKY

[11] = target: T11, ACEp.V535G peptide on HLA-B*57:01 (human)
T11 peptide: VSFGLQFQF

[12] = target: T12, PRCCp.V145L peptide on HLA-C*07:01 (human)
T12 peptide: KRKEPLKI

[13] = target: T13, ETNK1p.Q233L peptide on HLA-C*07:01 (human)
T13 peptide: FRLIARLL

[14] = target: T14, KBTBD3p.T293A peptide on HLA-B*35:01 (human)
T14 peptide: RPSTAEKYIF

B1: TCR1057 (TCR, V domains shown)
Valpha: GENVEQHPSTLSVQEGDSAVIKCTYSDSASNYFPWYKQELGKRPQLIIDIRSNVGEKKDQRIAVTLNKTAKHFSLHITETQPEDSAVYFCAASRGPAGGTSYGKLTFGQGTILTVHP
Vbeta: DTEVTQTPKHLVMGMTNKKSLKCEQHMGHRAMYWYKQKAKKPPELMFVYSYEKLSINESVPSRFSPECPNSSLLNLHLHALQPEDSALYLCASSQDAWWLSQPQHFGDGTRLSIL
B1: recognises [1].

B2: TCR1059 (TCR, V domains shown)
Valpha: SQQGEEDPQALSIQEGENATMNCSYKTSINNLQWYRQNSGRGLVHLILIRSNEREKHSGRLRVTLDTSKKSSSLLITASRAADTASYFCATDEGNFVFGPGTRLSVLP
Vbeta: NAGVTQTPKFQVLKTGQSMTLQCAQDMNHEYMSWYRQDPGMGLRLIHYSVGAGITDQGEVPNGYNVSRSTTEDFPLRLLSAAPSQTSVYFCASSPGQRETQYFGPGTRLLVL
B2: recognises [2].

B3: TCR955 (TCR, V domains shown)
Valpha: AQTVTQSQPEMSVQEAETVTLSCTYDTSESDYYLFWYKQPPSRQMILVIRQEAYKQQNATENRFSVNFQKAAKSFSLKISDSQLGDAAMYFCAYRRRNSGYALNFGKGTSLLVTP
Vbeta: DAGVTQSPTHLIKTRGQQVTLRCSPKSGHDTVSWYQQALGQGPQFIFQYYEEEERQRGNFPDRFSGHQFPNYSSELNVNALLLGDSALYLCASSLRVWSSYEQYFGPGTRLTVT
B3: recognises [3].

B4: TCR952 (TCR, V domains shown)
Valpha: SQQGEEDPQALSIQEGENATMNCSYKTSINNLQWYRQNSGRGLVHLILIRSNEREKHSGRLRVTLDTSKKSSSLLITASRAADTASYFCATDEVGDMRFGAGTRLTVKP
Vbeta: EPEVTQTPSHQVTQMGQEVILRCVPISNHLYFYWYRQILGQKVEFLVSFYNNEISEKSEIFDDQFSVERPDGSNFTLKIRSTKLEDSAMYFCAISGSLYNEQFFGPGTRLTVL
B4: recognises [4].

B5: TCR903 (TCR, V domains shown)
Valpha: AQKVTQAQTEISVVEKEDVTLDCVYETRDTTYYLFWYKQPPSGELVFLIRRNSFDEQNEISGRYSWNFQKSTSSFNFTITASQVVDSAVYFCALSEETDRGSTLGRLYFGRGTQLTVWP
Vbeta: DTAVSQTPKYLVTQMGNDKSIKCEQNLGHDTMYWYKQDSKKFLKIMFSYNNKELIINETVPNRFSPKSPDKAHLNLHINSLELGDSAVYFCASSQDGGFEQFFGPGTRLTVL
B5: recognises [5].

B6: TCR915 (TCR, V domains shown)
Valpha: AQKVTQAQTEISVVEKEDVTLDCVYETRDTTYYLFWYKQPPSGELVFLIRRNSFDEQNEISGRYSWNFQKSTSSFNFTITASQVVDSAVYFCALSDHNTDKLIFGTGTRLQVFP
Vbeta: NAGVTQTPKFRILKIGQSMTLQCTQDMNHNYMYWYRQDPGMGLKLIYYSVGAGITDKGEVPNGYNVSRSTTEDFPLRLELAAPSQTSVYFCASISDSYNEQFFGPGTRLTVL
B6: recognises [6].

B7: TCR1036 (TCR, V domains shown)
Valpha: RKEVEQDPGPFNVPEGATVAFNCTYSNSASQSFFWYRQDCRKEPKLLMSVYSSGNEDGRFTAQLNRASQYISLLIRDSKLSDSATYLCVVNMYNQGGKLIFGQGTELSVKP
Vbeta: NAGVTQTPKFQVLKTGQSMTLQCAQDMNHEYMSWYRQDPGMGLRLIHYSVGAGITDQGEVPNGYNVSRSTTEDFPLRLLSAAPSQTSVYFCASSYSGPNYEQYFGPGTRLTVT
B7: recognises [7].

B8: TCR1312 (TCR, V domains shown)
Valpha: QKEVEQNSGPLSVPEGAIASLNCTYSDRGSQSFFWYRQYSGKSPELIMFIYSNGDKEDGRFTAQLNKASQYVSLLIRDSQPSDSATYLCAVNRAGGSYIPTFGRGTSLIVHP
Vbeta: DAGVIQSPRHEVTEMGQEVTLRCKPISGHDYLFWYRQTMMRGLELLIYFNNNVPIDDSGMPEDRFSAKMPNASFSTLKIQPSEPRDSAVYFCASSQGQGVLGMKKLFFGSGTQLSVL
B8: recognises [8].

B9: TCR721 (TCR, V domains shown)
Valpha: AQKVTQAQTEISVVEKEDVTLDCVYETRDTTYYLFWYKQPPSGELVFLIRRNSFDEQNEISGRYSWNFQKSTSSFNFTITASQVVDSAVYFCALSEATGFGNEKLTFGTGTRLTIIP
Vbeta: DAGITQSPRHKVTETGTPVTLRCHQTENHRYMYWYRQDPGHGLRLIHYSYGVKDTDKGEVSDGYSVSRSKTEDFLLTLESATSSQTSVYFCAISDPRDSYEQYFGPGTRLTVT
B9: recognises [9].

B10: TCR720 (TCR, V domains shown)
Valpha: LAKTTQPISMDSYEGQEVNITCSHNNIATNDYITWYQQFPSQGPRFIIQGYKTKVTNEVASLFIPADRKSSTLSLPRVSLSDTAVYYCLVIEAGNNRKLIWGLGTSLAVNP
Vbeta: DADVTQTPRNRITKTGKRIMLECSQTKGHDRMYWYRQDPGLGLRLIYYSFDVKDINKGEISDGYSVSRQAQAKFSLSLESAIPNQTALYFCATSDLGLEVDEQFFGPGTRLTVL
B10: recognises [10].

B11: TCR901 (TCR, V domains shown)
Valpha: QKEVEQDPGPLSVPEGAIVSLNCTYSNSAFQYFMWYRQYSRKGPELLMYTYSSGNKEDGRFTAQVDKSSKYISLFIRDSQPSDSATYLCAMTRGGGGNKLTFGTGTQLKVEL
Vbeta: NAGVTQTPKFRVLKTGQSMTLLCAQDMNHEYMYWYRQDPGMGLRLIHYSVGEGTTAKGEVPDGYNVSRLKKQNFLLGLESAAPSQTSVYFCASSYGGPEQFFGPGTRLTVL
B11: recognises [11].

B12: TCR775 (TCR, V domains shown)
Valpha: GQNIDQPTEMTATEGAIVQINCTYQTSGFNGLFWYQQHAGEAPTFLSYNVLDGLEEKGRFSSFLSRSKGYSYLLLKELQMKDSASYLCAAHSGGYQKVTFGTGTKLQVIP
Vbeta: EPEVTQTPSHQVTQMGQEVILRCVPISNHLYFYWYRQILGQKVEFLVSFYNNEISEKSEIFDDQFSVERPDGSNFTLKIRSTKLEDSAMYFCASSEDEQEYSYEQYFGPGTRLTVT
B12: recognises [12].

B13: TCR1285 (TCR, V domains shown)
Valpha: DAKTTQPPSMDCAEGRAANLPCNHSTISGNEYVYWYRQIHSQGPQYIIHGLKNNETNEMASLIITEDRKSSTLILPHATLRDTAVYYCIVRLAPYSGNTPLVFGKGTRLSVIA
Vbeta: DAGVTQSPTHLIKTRGQQVTLRCSPKSGHDTVSWYQQALGQGPQFIFQYYEEEERQRGNFPDRFSGHQFPNYSSELNVNALLLGDSALYLCASISGFMGLMNTEAFFGQGTRLTVV
B13: recognises [13].

B14: TCR1364 (TCR, V domains shown)
Valpha: GQNIDQPTEMTATEGAIVQINCTYQTSGFNGLFWYQQHAGEAPTFLSYNVLDGLEEKGRFSSFLSRSKGYSYLLLKELQMKDSASYLCAVKGDYKLSFGAGTTVTVRA
Vbeta: DTGVSQNPRHKITKRGQNVTFRCDPISEHNRLYWYRQTLGQGPEFLTYFQNEAQLEKSRLLSDRFSAERPKGSFSTLEIQRTEQGDSAMYLCASSDRSYNEQFFGPGTRLTVL
B14: recognises [14].

From PMC9768791 (2022)
